Experimental data from publication PMC5087277 (ACS chemical biology, 2016).
Values belong to the compound of their own block, whether it stands above or below them.

How the values were obtained:
[1] = target: ClpXP (sc6ClpXΔN-bio with ClpP; ATP site on ClpX) (Escherichia coli, UniProt P0A6H1, C169S/K408E); experiment: bio-layer interferometry, ClpP association to immobilised ClpX; assay type: binding
[2] = test system: Nc1ncnc2c1ncn2[C@@H]1O[C@H](COP(=O)(O)OP(=O)(O)OP(=O)(O)O)[C@@H](O)[C@H]1O; experiment: coupled ATP hydrolysis assay; assay type: biochemical, Escherichia coli; conditions: pH 7.5
[3] = test system: ^sc6ClpX^ΔN-bio single-chain ClpX^ΔN pseudohexamer; experiment: BLI
[4] = target: ^sc6ClpX^ΔN-bio single-chain ClpX^ΔN pseudohexamer (E. coli); experiment: BLI
[5] = excess ClpP (1 μM), Hill n = 2.2, 10 mM MgCl2, 30 °C
[6] = no ClpP, Hill n = 2.4, 10 mM MgCl2, 30 °C

Compound: Nc1ncnc2c1ncn2[C@@H]1O[C@H](COP(=O)(O)OP(=O)(O)OP(=O)(O)O)[C@@H](O)[C@H]1O [ATP]
- EC50 [1]: 100 ± 2 µM

Compound: ClpXP (sc6ClpXΔN-bio with ClpP; ATP site on ClpX) (Escherichia coli K-12; C169S/K408E)
- K0.5 [2, 5]: 29 µM
- kcat [2, 5]: 41 min^−1 enz^−1

Compound: E. coli ClpP (C91V, C113A)
- kobs of association at 200 nM ClpP, maximal fitted value against ATP [3]: 0.138 ± 0.001 s^−1 for kobs
- maximal rate of kobs-1 (double-exponential association, amplitude ~70%) [3]: the maximal rate was 22 ± 7 s^−1
- maximal rate of kobs-2 (double-exponential association, amplitude ~30%) [3]: the maximal rate was 0.54 ± 0.2 s^−1

- Kd [4]: < 0.0001 µM
- dissociation rate constant in the absence of nucleotide or presence of ADP [4]: < 0.07 s⁻¹
- fold more kinetically stable in 7:1 ADP:ATP against ADP alone [4]: 100 fold
- half-life of ADEP-2B-induced dissociation [4]: 1 s
- half-life of dissociation in ADP (complex formed with ATP) [4]: 5 s
- half-life of dissociation in ADP (complex formed with ATPγS) [4]: 20 s
- half-maximal binding, total ClpP concentration [4]: 160 pM
- maximum dissociation rate constant with ADEP-2B (hyperbolic fit) [4]: 2 s⁻¹
Compound: E. coli ClpP (C91V, C113A) (enzyme)

Compound: sc6ClpXΔN-bio (Escherichia coli K-12; C169S/K408E)
- K0.5 [2, 6]: 42 ± 3 µM
- kcat [2, 6]: 73 min^−1 enz^−1
